Experimental data: patent US20040018487A1

Target: HPV 16 E6 C-terminal PL peptide (TQL), biotinylated (HPV 16)
Experiment: G assay, HPV16 E6 PL peptide titrated against a constant amount of GST-PDZ

GST-SAST1 KIAA PDZ domain, sequence (Q9Y2H9 other isoform, or with tags, fused parts or gaps): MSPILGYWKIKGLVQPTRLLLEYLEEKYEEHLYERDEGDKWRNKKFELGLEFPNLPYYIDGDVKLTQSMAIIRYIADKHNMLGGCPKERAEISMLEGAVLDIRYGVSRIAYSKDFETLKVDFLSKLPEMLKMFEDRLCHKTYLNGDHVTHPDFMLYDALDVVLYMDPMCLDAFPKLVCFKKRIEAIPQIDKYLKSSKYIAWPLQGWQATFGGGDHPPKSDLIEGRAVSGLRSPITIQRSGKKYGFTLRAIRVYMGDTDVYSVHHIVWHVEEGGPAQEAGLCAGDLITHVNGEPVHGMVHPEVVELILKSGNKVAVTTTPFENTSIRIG
GST-DLG3 PDZ domains 1-2, sequence (Q92796 other isoform, or with tags, fused parts or gaps limits assumed): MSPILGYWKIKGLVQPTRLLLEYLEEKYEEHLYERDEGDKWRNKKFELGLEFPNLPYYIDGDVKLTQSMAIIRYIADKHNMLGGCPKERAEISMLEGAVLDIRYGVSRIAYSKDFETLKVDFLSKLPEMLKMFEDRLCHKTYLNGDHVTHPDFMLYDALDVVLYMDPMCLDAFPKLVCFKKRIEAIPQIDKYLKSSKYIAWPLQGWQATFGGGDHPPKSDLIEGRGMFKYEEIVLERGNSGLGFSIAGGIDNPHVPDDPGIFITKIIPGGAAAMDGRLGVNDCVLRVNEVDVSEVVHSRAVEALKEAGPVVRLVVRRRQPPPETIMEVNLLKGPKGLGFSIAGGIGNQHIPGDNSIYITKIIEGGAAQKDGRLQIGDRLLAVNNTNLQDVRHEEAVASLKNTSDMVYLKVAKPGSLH
GST-Magi3 PDZ domain 1, sequence (Q5TCQ9 other isoform, or with tags, fused parts or gaps limits assumed): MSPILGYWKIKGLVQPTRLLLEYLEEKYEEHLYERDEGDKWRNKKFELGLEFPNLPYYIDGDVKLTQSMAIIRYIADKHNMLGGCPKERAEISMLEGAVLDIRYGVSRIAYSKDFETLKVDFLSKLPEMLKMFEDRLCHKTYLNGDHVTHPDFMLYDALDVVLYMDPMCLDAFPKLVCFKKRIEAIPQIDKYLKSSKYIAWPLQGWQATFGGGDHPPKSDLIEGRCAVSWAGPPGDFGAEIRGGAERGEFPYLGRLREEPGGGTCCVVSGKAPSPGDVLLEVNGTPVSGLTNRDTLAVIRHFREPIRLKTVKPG

Row | Substance | EC50 [nM]
1 | GST-DLG2 PDZ domain 3 | 1600
2 | GST-DLG3 PDZ domains 1-2 (from UniProt Q92796 125-316) | 3800
3 | GST-MAGI1 PDZ domain 2 | 56
4 | GST-Magi3 PDZ domain 1 (from UniProt Q5TCQ9 18-106) | 310
5 | GST-SAST1 KIAA PDZ domain (from UniProt Q9Y2H9 960-1062) | 580
6 | GST-SAST2 PDZ domain | 1200
7 | GST-SIP1 PDZ domain 1 | 7500
8 | GST-VARTUL (PDZ domain not stated) (from UniProt Q14160 720-955) | 940
